Experiment: yeast display, Sf9 membrane polyspecificity reagent, FACS + sequencing; frameworks hold sequencing errors
Outline: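 Nanobodies from a synthetic yeast display library (Saccharomyces cerevisiae BJ5465), induced 36–48 hours with galactose, were stained 1 hour at 4 °C with 10% biotinylated, detergent-solubilized Sf9 membrane reagent, enriched on streptavidin microbeads, then FACS-sorted. Anti-HA (expression) and streptavidin (reagent binding) fluorescence set low and high (top ~1%) gates. Polyreactivity labels come from the gate of origin. Genes were colony-PCR amplified, MiSeq 2 × 250 sequenced and filtered by CDR length.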
For “QVQLVESGGGLVQAGGSLRLSCAASGITFYRYMGWYRQAPGKERELVASITGRGGSTYYADSVKGRFTISRDNAKNTVYLQMNSLKPEDTAVYYCAARSYARPGGSRFDYWGQGTQVTVSS”, the “polyreactivity (PSR sort gate)” value was “high polyreactivity”. For “QVQLVESGGGLVQAGGSLRLSCAASGITFYRYTMGWYRQAPGKERELVATITSGASTSYADSVKGRFTISRDNAKNTVYLQMNSLKPEDTAVYYCAARRTRVTGRYSVYAFDYWGQGTQVTVSS”, the “polyreactivity (PSR sort gate)” value was “low polyreactivity”. For “QVQLVESGGGLVQAGGSLRLSCAASGITFYRYVMGWYRQAPGKERELVAAITTGDSTYYADSVKGRFTISRDNAKNTVYLQMNSLKPEDTAVYFCAAVYYTALANYDYWGQGTQVTVSS”, the “polyreactivity (PSR sort gate)” value was “low polyreactivity”. With “QVQLVESGGGLVQAGGSLRLSCAASGITFYTNAMGWYRQAPGKERELVAGISSSSGSTYYADSVKGRFTISRDNAKNTVYLQMNSLKPEDTAVYYCAADQDSTASDYKEYGYWGQGTQVTVSS” the “polyreactivity (PSR sort gate)” value was “low polyreactivity”. In the case of “QVQLVESGGGLVQAGGSLRLSCAASGITFYVKDMGWYRQAPGKEREFVAAISYRGGSTYYADSVKGRFTISRDNAKNTVYLQMNSLKPEDTAVYYCAADYNYWSPHRYDYWGQGTQVTVSW”, the “polyreactivity (PSR sort gate)” value is reported as “low polyreactivity”. With “QVQLVESGGGLVQAGGSLRLSCAASGITFYVYALGWYRQAPGKARALVAANNYDSGSTYYADSEKGRFTISRDNAKNTVYIQKNSLKPEDTAGYYCATDGVNPFYAYDYWGQGTQVTVSS” the “polyreactivity (PSR sort gate)” value was “low polyreactivity”. In the case of “QVQLVESGGGLVQAGGSLRLSCAASGITFYVYTMGWDRQAPGKERELVAAITWSGGSTYYADSVKGRFTISRDNAKNTVYLQMKSLKPEDTAVYYCNRVGYWVGLDSWGQGTQVTVSS”, the “polyreactivity (PSR sort gate)” value is reported as “high polyreactivity”. With “QVQLVESGGGLVQAGGSLRLSCAASGITFYWYAMGWYRQAPGKERELVAAITRSVGSTYYADSVKGRFSISRDNAKNPVYLQMNSLKPEDTAVYYCAADFYYYGFDYWGQGTQVTVSS” the “polyreactivity (PSR sort gate)” value was “low polyreactivity”. For “QVQLVESGGGLVQAGGSLRLSCAASGITFYYNAMGWYRQAPGKERELVAAIRSAGSTYYADSVKGRFTISRDNAKNSVYVQMNSLKPEDTAVDYWGQGTQVTVSS”, the “polyreactivity (PSR sort gate)” value was “low polyreactivity”. In the case of “QVQLVESGGGLVQAGGSLRLSCAASGITFYYNAMGWYRQAPGKERELVADISARGGSTYYADSVKGRFTISRDNAKNTVYLQMNCLIPEDTAVYYCNTYPKKKRPNEYDYWGQGTQVSVSS”, the “polyreactivity (PSR sort gate)” value is reported as “high polyreactivity”. In the case of “QVQLVESGGGLVQAGGSLRLSCAASGITFYYYAKGWYRQAPGKERELVSAISFRGGSTYYADSVKGRFTISRDNAKNSVYLQMNSLKPEDTAVYYCAAETSRSWYTWVSYDYWGQGTQVNVSS”, the “polyreactivity (PSR sort gate)” value is reported as “high polyreactivity”. With “QVQLVESGGGLVQAGGSLRLSCAASGITFYYYAMGWYRQAPGKERELVASISQSGGSTYYAASVKGRFSISRDNAKNTVYLQMNSLKPEDTAVYYCAADPGRYYPMYYWGQGTQVTVSS” the “polyreactivity (PSR sort gate)” value was “low polyreactivity”. For “QVQLVESGGGLVQAGGSLRLSCAASGITFYYYVMGWYRQAHGKERELVAAISNRGGSTYYADSVKGRFTISRDNAKNTVYLQMNSLKPDDTAVYYCAAYPLSGYDYWGQGTQVTVSS”, the “polyreactivity (PSR sort gate)” value was “high polyreactivity”. With “QVQLVESGGGLVQAGGSLRLSCAASGITIARYAMGWYRQAPGKERELVAAITRSGGRTYYADSVKGRFTISRDNAKITVYLQMKSLKPEDTAVYYCYNVTRGKNHGTKYDYWGQGTQVTVSS” the “polyreactivity (PSR sort gate)” value was “high polyreactivity”. For “QVQLVESGGGLVQAGGSLRLSCAASGITIKYYTMGWYRQAPGKERELVAAISRSGGSTYYADSVKGRFTISRDNAKNTVYLQMNSLIPEDTAVYYCAAERGAYRGVTFTYGYWGQGTQVTVSS”, the “polyreactivity (PSR sort gate)” value was “high polyreactivity”. For “QVQLVESGGGLVQAGGSLRLSCAASGITILRYAMGWYRQAPGKERELVARITRSGGSTYYADSVKGRFTISRDNAKNTVYLQMNSLKPEDTAVYYCNDVRSAGDGDYWGQGTQVTVSS”, the “polyreactivity (PSR sort gate)” value was “high polyreactivity”.

From the nanobody polyreactivity screen of Harvey et al. (2022)
